One may read the Kd as the constant that tells how readily two partners part at equilibrium. Read a low Kd as higher affinity.

Data set [1] relates to ELP1 (wild type);ELP2;ELP3 (Homo sapiens;Homo sapiens;Homo sapiens). Nature of the data set: MST. The following applies: none (in vitro transcribed); MST: 14 nM Cy5-tRNA, ELP123 from 1.5 uM in serial dilution, 20 mM HEPES pH 7.5, 100 mM NaCl, 5 mM DTT, 0.05% Tween 20; incubated 30 min at 4 C, measured at ….
Data set [2] concerns ELP1 K815T;ELP2;ELP3 (Homo sapiens;Homo sapiens;Homo sapiens). Kind of data set: MST. The settings on record: curve did not reach plateau; authors state actual affinity is likely lower; none (in vitro transcribed); MST: 14 nM Cy5-tRNA, ELP123 from 1.5 uM in serial dilution, 20 mM HEPES pH 7.5, 100 mM NaCl, 5 mM DTT, 0.05% Tween 20; incubated 30 min at 4 C, measured at ….
Data set [3] deals with the molecule itself. Nature of the data set: SEC; purified ELP1_(715-1332) proteins on a S200 10/300 increase gel filtration column with calibration standards; fractions on 12% SDS-PAGE, Coomassie.

As to tRNAGlnUUG, the Kd in data set [1] was 50 nM; in data set [2], 150 nM.

B1: human ELP1 N-terminal truncation, residues 715-1332 (ELP1_(715-1332)) (domain or fragment, UniProt O95163 715-1332, looked up)
chain: NLEVVHHRALVLAQIRKWLDKLMFKEAFECMRKLRINLNLIYDHNPKVFLGNVETFIKQIDSVNHINLFFTELKEEDVTKTMYPAPVTSSVYLSRDPDGNKIDLVCDAMRAVMESINPHKYCLSILTSHVKKTTPELEIVLQKVHELQGNAPSDPDAVSAEEALKYLLHLVDVNELYDHSLGTYDFDLVLMVAEKSQKDPKEYLPFLNTLKKMETNYQRFTIDKYLKRYEKAIGHLSKCGPEYFPECLNLIKDKNLYNEALKLYSPSSQQYQDISIAYGEHLMQEHMYEPAGLMFARCGAHEKALSAFLTCGNWKQALCVAAQLNFTKDQLVGLGRTLAGKLVEQRKHIDAAMVLEECAQDYEEAVLLLLEGAAWEEALRLVYKYNRLDIIETNVKPSILEAQKNYMAFLDSQTATFSRHKKRLLVVRELKEQAQQAGLDDEVPHGQESDLFSETSSVVSGSEMSGKYSHSNSRISARSSKNRRKAERKKHSLKEGSPLEDLALLEALSEVVQNTENLKDEVYHILKVLFLFEFDEQGRELQKAFEDTLQLMERSLPEIWTLTYQQNSATPVLGPNSTANSIMASYQQQKTSVPVLDAELFIPPKINRRTQWKLSLLD
notes: ELP1, Homo sapiens, UniProt O95163, amino acids 715 to 1332; cloned with NcoI and XhoI into pETM11; also called ELP1CT; ELP1 C-terminal construct; source: E. coli BL21 pRARE, purified (NiNTA, S200 gel filtration)
B1: the binding result in data set [3] was “binds”.

B2: human ELP1_(715-1332)K815T (domain or fragment, UniProt O95163 715-1332, looked up)
chain: NLEVVHHRALVLAQIRKWLDKLMFKEAFECMRKLRINLNLIYDHNPKVFLGNVETFIKQIDSVNHINLFFTELKEEDVTKTMYPAPVTSSVYLSRDPDGNTIDLVCDAMRAVMESINPHKYCLSILTSHVKKTTPELEIVLQKVHELQGNAPSDPDAVSAEEALKYLLHLVDVNELYDHSLGTYDFDLVLMVAEKSQKDPKEYLPFLNTLKKMETNYQRFTIDKYLKRYEKAIGHLSKCGPEYFPECLNLIKDKNLYNEALKLYSPSSQQYQDISIAYGEHLMQEHMYEPAGLMFARCGAHEKALSAFLTCGNWKQALCVAAQLNFTKDQLVGLGRTLAGKLVEQRKHIDAAMVLEECAQDYEEAVLLLLEGAAWEEALRLVYKYNRLDIIETNVKPSILEAQKNYMAFLDSQTATFSRHKKRLLVVRELKEQAQQAGLDDEVPHGQESDLFSETSSVVSGSEMSGKYSHSNSRISARSSKNRRKAERKKHSLKEGSPLEDLALLEALSEVVQNTENLKDEVYHILKVLFLFEFDEQGRELQKAFEDTLQLMERSLPEIWTLTYQQNSATPVLGPNSTANSIMASYQQQKTSVPVLDAELFIPPKINRRTQWKLSLLD
notes: ELP1, Homo sapiens, UniProt O95163, amino acids 715 to 1332, with the patient variant p.Lys815Thr; Patient-derived variant (c.2444A>C; p.Lys815Thr); PDB 5CQR is the wild-type parent; also called ELP1K815T C-terminal construct; source: E. coli BL21 pRARE, purified (NiNTA, S200 gel filtration)
For the molecule B2, the binding result in data set [3] is given as “binds”.

These data come from article PMC10290953, “A novel ELP1 mutation impairs the function of the Elongator complex and causes a severe neurodevelopmental phenotype” (Journal of Human Genetics, 2023).
